# Results from US6972178B1, “Drug screening using a proline-rich nuclear receptor co-regulatory protein/nuclear receptor co-expression system” (City of Hope, priority 1999, dated 2005).
# Assays:
# [1] = target: SF1 (Bos taurus, UniProt Q04752); assay: Nuclear receptor transactivation, CAT reporter in SK-BR-3 cells; assay type: cell-based, bovine; set-up: The coding region for the wild type bovine SF1 was first subcloned into a yeast expression vector, pGBT9; expressed in transfected cells; host or cells: yeast (Y187, or Y187 x CG1945 diploids)
# Text: (§1) To examine the possible biological significance of this interaction, the entire PNRC coding region was inserted into a mammalian expression vector, pSG5, and this expression plasmid was used to transiently transfect SK-BR-3 cells along with a reporter plasmid, pUMS 1.3CAT-(SF1site)3, which contains three copies of extended steroid hormone half binding site from the human aromatase gene (5′-CCAAGGTCAGAA-3′ (SEQ ID NO:3)), promoter 1.3 of the human aromatase gene, and the CAT reporter gene, along with a second expression plasmid for either SF1 (pSG5-SF1) or ERRα1 (pSG5-ERRα1) (Yang et al., 1998).
# (§2) Plasmid for overexpression of PNRC in mammalian cells was made by inserting PCR-amplified fragment with BclI at both ends into the BamHI site in pSG5 vector (Stratagene). To construct mammalian expression plasmids for bovine SF1 and human ERRα1, named pSG5-bSF1 and pSGS-hERRα1, the coding regions for SF1 and ERRα1 were amplified by PCR with an EcoRI site at both ends, and inserted into an EcoRI site of the pSG5 vector. The CAT reporter plasmid, pUMS1.3CAT-(SF1site)3, was prepared by inserting 3 copies of SF1 binding site from human aromatase gene, 5′-CCAAGGTCAGAA-3′ (SEQ ID NO:3), into pUMS-64/+5CAT (Zhou and Chen, 1999) through a HindIII site. […]
# [2] = target: T1, ERRα1 (Homo sapiens, UniProt P11474); assay: as above; assay type: cell-based
# T1 construct: inserting the PCR-amplified ERRA-1 coding region into pGBT9 through an EcoRI site; expressed in transfected cells; host or cells: yeast Y187 x CG1945 diploids
# T1 sequence (P11474 1-423): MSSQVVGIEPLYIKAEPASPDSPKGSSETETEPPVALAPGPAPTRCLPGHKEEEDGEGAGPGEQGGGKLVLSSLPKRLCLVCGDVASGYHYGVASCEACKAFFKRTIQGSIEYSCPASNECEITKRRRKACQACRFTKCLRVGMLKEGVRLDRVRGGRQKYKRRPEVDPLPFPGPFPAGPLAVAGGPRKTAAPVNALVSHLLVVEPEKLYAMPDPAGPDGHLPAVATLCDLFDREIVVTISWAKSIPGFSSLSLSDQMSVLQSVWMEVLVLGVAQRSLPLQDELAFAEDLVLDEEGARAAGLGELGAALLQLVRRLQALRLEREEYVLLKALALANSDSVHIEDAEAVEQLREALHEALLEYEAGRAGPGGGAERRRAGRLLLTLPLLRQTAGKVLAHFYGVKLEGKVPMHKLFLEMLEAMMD
# Text: as §1, §2
# SF1, sequence (Q04752 whole entry): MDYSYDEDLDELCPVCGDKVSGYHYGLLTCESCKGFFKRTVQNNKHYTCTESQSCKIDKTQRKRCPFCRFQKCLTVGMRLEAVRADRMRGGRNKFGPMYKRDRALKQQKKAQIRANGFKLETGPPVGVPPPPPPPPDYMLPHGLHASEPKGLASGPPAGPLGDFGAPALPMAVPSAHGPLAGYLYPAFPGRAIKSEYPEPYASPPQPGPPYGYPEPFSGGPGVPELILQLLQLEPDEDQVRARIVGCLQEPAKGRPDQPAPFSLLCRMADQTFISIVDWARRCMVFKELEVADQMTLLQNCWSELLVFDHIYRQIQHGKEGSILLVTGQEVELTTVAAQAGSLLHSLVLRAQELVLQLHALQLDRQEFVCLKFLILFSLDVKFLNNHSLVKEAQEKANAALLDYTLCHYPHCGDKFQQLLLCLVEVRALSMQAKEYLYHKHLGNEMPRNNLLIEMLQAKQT
substance,measurement,setting,value
"PNRC: proline-rich nuclear receptor co-regulatory protein, 327 aa, SEQ ID NO:8, nuclear receptor coactivator",effect on SF1-stimulated transcription by promoter 1.3 of the human aromatase gene,[1],enhanced both SF1-stimulated and ERRα1-stimulated transcription
same,effect on ERRα1-stimulated transcription by promoter 1.3 of the human aromatase gene,[2],enhanced both SF1-stimulated and ERRα1-stimulated transcription
